Consider two molecules from paper PMC10107573 (Nature Communications, 2023).

The assay deals with recombinant biotinylated SARS-CoV-2 spike RBD, wild type (SARS-CoV-2, UniProt P0DTC2, biotinylated). Briefly: BLI. The conditions noted are these: both partners purified.

B1: monoclonal antibody 1-1D (human IgG1) (antibody, V domains shown)
VH: EVQLVESGGGLIQPGGSLRLSCAASGFTVSSNYMSWVRQAPGKGLEWVSVIYSGGSTYFADSVKGRFTISRDNSKNTLYLQMNSLRAEDTAVYYCARGELGYSYGMDVWGQGTTVTVSS
VL: QSVLTQPPSVSAAPGQKVTISCSGSSSNIGDNYVSWYQLLPGTAPKLLIYDNNQRPSGIPDRFSGSKSGTSATLGITGLQTGDEADYYCGTWDSSLSTGVFGGGTRLTVL
In the case of B1, the binding result is “binds”.

B2: monoclonal antibody 10-5B (human IgG1) (antibody, V domains shown)
VH: EVQLVESGGGLIQPGGSLRLSCAVSGFTVSRMSWVRQAPGKGLECVSVIYTGGNTDYADSVKGRFTISRDNSKNTLYLQMNSLRAEDTALYYCVRGSGGIHDAFDIWGQGTMVTVSS
VL: DIQMTQSPSSVSASVGDRVTITCRASQGISTWLAWYQQKPGKAPKVLINAASGLQSGVPSRFSGSGSGTDFTLTISSLQPEDFATYYCQQAHSFPPTFGPGTKLEIK
For the molecule B2, the binding result is on record as “binds”.
